Assay in all cases: Cell surface expression analysis of HLA class I by flow cytometry
Common to all, as to assay type: binding, human

For series [1], the system named is HLA class I on A549 cells. The settings on record: A549, lung adenocarcinoma cells; FITC-labeled mAb. As for the experimental part: (§1) Reactivity of 2D7 mAb in tumor cell lines and myeloma cells derived from multiple myeloma patients were assessed by flow cytometry.
(§2) The tumor cell lines used were prepared as follows. The myeloma cell line RPMI 8226, B lymphoblastic cell lines (IM-9, Raji, H S-Sultan, and Daudi), the T lymphoblastic cell line CEM, the chronic myeloid leukemia cell line K562, the lung adenocarcinoma cell line A549, the colon adenocarcinoma cell line COLO 201, and the gastric adenocarcinoma cell line MKN-1 were obtained from the Health Science Resources Bank (Osaka, Japan). The myeloma cell line U266-B1, the B lymphoblastic cell line ARH-77, the T-lymphoblastic cell line Jurkat the breast cancer cell line MCF-7, the hepatocellular carcinoma HepG2, the clear cell renal cell carcinoma Caki-2, and the malignant melanoma MeWo were obtained from the American Type Culture Collection (Manassas, Va.). The EBV-transformed B-cell line YN was a gift from Dr. Yasuhiko Nishioka (The University of Tokushima). These cell lines were cultured in an RPM-1640 medium (Sigma-Aldrich, St. Louis, Mo.) supplemented with 10% fetal calf serum (Gibco BRL, Grand Island, N.Y.) and penicillin (100 U/mL) under a humidified atmosphere of 5% CO2 at 37° C.
(§3) Cell surface expression analysis of HLA class I by flow cytometry was performed as follows using FITC-labeled 2D7 mAb or FITC-labeled anti-HLA-ABC common region mAb (Chemicon, San Diego, Calif.). The cells (5×10^5 cells) were washed twice with PBS, and then incubated on ice for 40 minutes with FITC-labeled 2D7 mAb or FITC-labeled anti-HLA-ABC common region mAb. MM patient-derived BMMCs were incubated on ice for 15 minutes with 2% γ globulin diluted in PBS, and stained with FITC-labeled 2D7 mAb and PE-labeled anti-CD38 mAb (BD Bioscience, San Jose, Calif.) for myeloma cell gating. Next, the cells were washed twice with PBS, and analyzed using an EPICS XL flow cytometer (Beckman Coulter, Japan). In several experiments, the cells were stimulated for 48 hours with IFNα or IFNγ prior to HLA class I expression analysis. HLA class I expression levels were evaluated as GeoMFI using the CellQuest software (BID Biosciences).

For series [2], the system named is HLA class I on ARH77 cells. To be noted: ARH77, B-lymphoblastic cells; FITC-labeled mAb. As for the experimental part: as §1, §2, §3
The test system of the next series is HLA class I on CEM cells. To be noted: T-lymphoblastic cells, FITC-labeled mAb. The protocol: as §1, §2, §3
For series [3], the system named is HLA class I on COLO 201 cells. To be noted: COLO 201, colon adenocarcinoma cells; FITC-labeled mAb. As for the experimental part: as §1, §2, §3
The test system of series [4] is HLA class I on Caki-2 cells. The settings on record: Caki-2, clear cell renal cell carcinoma; FITC-labeled mAb. As for the experimental part:
as §1, §2, §3

Series [5] has as its system HLA class I on Daudi cells. The settings on record: B-lymphoblastic cells, FITC-labeled mAb. The protocol: as §1, §2, §3
Series [6] concerns HLA class I on HS-Sultan cells. To be noted: B-lymphoblastic cells, FITC-labeled mAb. As for the experimental part: as §1, §2, §3
The subject of series [7] is HLA class I on HepG2 cells. To be noted: HepG2, hepatocellular carcinoma; FITC-labeled mAb. The protocol:
as §1, §2, §3

Series [8] concerns HLA class I on IM-9 cells. To be noted: IM-9, B-lymphoblastic cells; FITC-labeled mAb. The protocol:
as §1, §2, §3

For series [9], the system named is HLA class I on Jurkat cells. To be noted: T-lymphoblastic cells, FITC-labeled mAb. As for the experimental part: as §1, §2, §3
Series [10] deals with HLA class I on K562 cells. To be noted: K562, chronic myeloid leukemia cells; FITC-labeled mAb. As for the experimental part: as §1, §2, §3
Series [11] has as its system HLA class I on MCF-7 cells. To be noted: MCF-7, breast cancer cells; FITC-labeled mAb. The protocol:
as §1, §2, §3

Series [12] relates to HLA class I on MKN-1 cells. To be noted: MKN-1, gastric adenocarcinoma cells; FITC-labeled mAb. As for the experimental part:
as §1, §2, §3

Series [13] deals with HLA class I on MeWo cells. To be noted: malignant melanoma, FITC-labeled mAb. The protocol:
as §1, §2, §3

In series [14] the test system is HLA class I on RPMI 8226 cells. The settings on record: RPMI 8226, myeloma cells; FITC-labeled mAb. As for the experimental part: as §1, §2, §3
Series [15] deals with HLA class I on Raji cells. To be noted: B-lymphoblastic cells, FITC-labeled mAb. The protocol: as §1, §2, §3
The subject of series [16] is HLA class I on U266 cells. To be noted: U266, myeloma cells; FITC-labeled mAb. As for the experimental part:
as §1, §2, §3

The test system of a further series is HLA class I on YN cells. The settings on record: EBV-transformed B-cells, FITC-labeled mAb. As for the experimental part:
as §1, §2, §3

B1: 2D7: monoclonal antibody obtained by immunizing human myeloma cells; recognizes HLA class I (HLA-A) (antibody, V domains shown)
VH: QVQLQQSGPELVKPGASVKMSCKASGYTFTDYFIHWVKQRPGQGLEWIGWIFPGDDTTDYNEKFRGKTTLTADKSSSTAYILLSSLTSEDSAMYFCVRSDDFDYWGQGTTLTVSS
VL: QIVLTQSPAIMSASPGEKVTITCSASSSVSYMHWFQQKPGTFPKLWIYSTSNLASGVPTRFSGSGSGTSYSLTISRMEAEDAATYYCQQRTSYPPTFGSGTKLEIK
For the molecule B1, the “Expression (geometric mean fluorescence intensity)” value (from here on “Expression”) in series [1] came to 37; in series [2], 3727; with HLA class I on CEM cells it was 72; in series [3], 105; in series [4] it was 13; in series [5], 2. Also, the “Expression” value in series [6] is 285; in series [7], 33; in series [8], 662; in series [9] it was 111; in series [10] it was 11; in series [11] it was 29. Besides, the “Expression” value in [12] is 49; in series [13], 21; in [14], 509; in [15], 297; in series [16], 340; with HLA class I on YN cells, 804.

Source of the values: patent US20090022687A1, “Novel Pharmaceuticals That Use Anti-HLA Antibodies” (Chugai Seiyaku Kabushiki Kaisha, priority 2005, published 2009).
